Data from patent publication US20160250307A1.

Assays:
HLA-A*24 (human) [1] = assay: UV-ligand exchange, anti-b2m ELISA; grade: exchange yield >=75%
HLA-A*24 (human) [2] = assay: UV-ligand exchange, anti-b2m ELISA; grade: exchange yield >=50%
HLA-A*02 (human) = assay: as above

Row | Binder | peptide exchange yield (HLA-A*24 (human) [1]) [%] | also measured
1 | LYWSHPRKF | > 75 | –
2 | RYSAGWDAKF | > 75 | –
3 | AYLLQPSQF | > 75 | –
4 | AYPAIRYLL | > 75 | –
5 | KFVTVQATF | > 75 | –
6 | VYGLQRNLL | > 75 | –
7 | IYPGAFVDL | > 75 | –
8 | DYIPYVFKL | > 75 | –
9 | AYGTYRSNF | > 75 | –
10 | AFSPDSHYLLF | – | peptide exchange yield (HLA-A*24 (human) [2]): 50 to 75%
11 | ALDSGAFQSV (modifications not checked) | – | peptide exchange yield (HLA-A*02 (human)): 50 to 75%
12 | SYPTFFPRF | > 75 | –
13 | IYIPSYFDF | > 75 | –
14 | VFHPRQELI | – | peptide exchange yield (HLA-A*24 (human) [2]): 50 to 75%
15 | AYLKWISQI | > 75 | –
16 | SYNPAENAVLL | > 75 | –

Row | Binder | peptide exchange yield (HLA-A*24 (human) [1]) [%] | also measured
17 | IYVTSIEQI | > 75 | –
18 | RWPKKSAEF | > 75 | –
19 | IYLERFPIF | > 75 | –
20 | KYPDIISRI | > 75 | –
21 | IYTGNISSF | > 75 | –
22 | RYNEKCFKL | > 75 | –
23 | KWPETPLLL | > 75 | –
24 | YYGILQEKI | > 75 | –
25 | RYAPPPSFSEF | > 75 | –
26 | SYITKPEKW | > 75 | –
27 | YYNKVSTVF | > 75 | –
28 | VYQGAIRQI | > 75 | –
29 | IYADVGEEF | > 75 | –
30 | VYGDVISNI | > 75 | –
31 | AYVNTFHNI | > 75 | –
